Source: patent US20240309087A1 (SHANGHAI JUNSHI BIOSCIENCES, published 2024)

T1: hCD112R mFC recombinant protein (human; murine, UniProt Q6DKI7 41-160)
T1 construct: range 41-160; expressed in 293E cells; also called hCD112R ECD mFC; hCD112R-ECD-mFC; not shown: murine IgG2a Fc domain (MX2-mFc vector)
T1 sequence (looked up): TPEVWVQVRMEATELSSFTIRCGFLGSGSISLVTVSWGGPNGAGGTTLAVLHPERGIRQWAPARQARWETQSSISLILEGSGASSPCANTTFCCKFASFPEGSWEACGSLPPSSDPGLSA

T2: human CD112R on Jurkat CD112R effector cells (human, UniProt Q6DKI7 1-326)
T2 sequence (looked up): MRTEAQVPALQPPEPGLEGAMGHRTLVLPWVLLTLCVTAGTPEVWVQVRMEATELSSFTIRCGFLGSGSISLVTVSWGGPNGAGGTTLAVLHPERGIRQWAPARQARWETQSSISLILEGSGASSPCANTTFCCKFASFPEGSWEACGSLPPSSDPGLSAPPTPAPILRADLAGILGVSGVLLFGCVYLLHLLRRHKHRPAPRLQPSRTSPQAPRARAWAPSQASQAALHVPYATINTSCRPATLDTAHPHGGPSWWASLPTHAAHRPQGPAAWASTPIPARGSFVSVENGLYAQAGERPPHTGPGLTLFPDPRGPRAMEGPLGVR


Key:
[1] = molecular target: T1, hCD112R mFC recombinant protein; assay: FACS competition, hCD112R mFc on CHO CD112 cells; IC50 COM701/IC50 antibody
Procedure: (§1) Cells CHO CD112 overexpressing human CD112 were co-incubated with a hCD112R mFc protein solution (5 μg/mL) prepared in a staining buffer (PBS+1% FBS), and the humanized anti-CD112R antibodies or the control antibodies at different concentrations (initial concentration: 100 μg/mL, 3-fold dilution, 10 concentration gradients) at 4° C. for 30 min. Unbound antibodies were then washed with a staining buffer and the cells were incubated with 1% (v/v) goat anti-mouse IgG Fc fluorescent secondary antibodies (Jackson ImmunoResearch) prepared in a staining buffer at 4° C. for 30 min in the dark. Finally, the cells were collected by using a flow cytometer (BD Canto II), and the fluorescent antibodies bound to the cell surface were detected. Raw data were analyzed by using FlowJo to obtain MFI values, and a four-parameter curve fitting was performed by using GraphPad Prism software to obtain IC₅₀ values. The positive control and the negative control were COM701 (anti-CD112R antibody, Compugen, obtained by expression and purification according to the sequences in US20180280506A1) and the anti-KLH hu-IgG4 antibody, respectively.

[2] = molecular target: T2, human CD112R on Jurkat CD112R effector …; assay: cell-based or functional assay
[3] = molecular target: T1, hCD112R mFC recombinant protein; assay: ELISA, coated hCD112R-ECD-mFC; EC50 COM701/EC50 antibody
Procedure: (§2) A plate was coated with a hCD112R-ECD-mFC protein (1.5 μg/mL) at a fixed concentration, and the humanized anti-CD112R antibodies diluted in a gradient (initial concentration: 1 μg/mL, 2.5-fold gradient dilution, 12 concentration gradients in total) were added to bind to the antigen. HRP-conjugated goat anti-human antibody IgG (Fc specific) (Sigma, A0170) was subjected to a 5000-fold dilution and used as a detection antibody for detection. The color development was performed with 0.1 mg/mL TMB, and finally stopped with 2 M hydrochloric acid. The plate was read at 420 nm/620 nm. EC₅₀ was obtained by fitting with a four-parameter logistic regression (4PL) model. The […] were COM701 (anti-CD112R antibody, Compugen, obtained by expression and purification according to the sequences in US20180280506A1) and the anti-KLH hu-IgG4 antibody.

[4] = molecular target: T1, hCD112R mFC recombinant protein; assay: FACS competition, hCD112R mFc on CHO CD112 cells
Procedure: as §1

[5] = molecular target: T1, hCD112R mFC recombinant protein; assay: ELISA, coated hCD112R-ECD-mFC
Procedure: as §2

Binder | Relative activity (%) [1] [%] | EC50, CD112R/CD112 reporter [2] [µg/mL] | Relative activity (%), EC50 COM701/EC50 antibody [2] [%] | Relative activity (%) [3] [%] | IC50 [4] [µg/mL] | EC50 [5] [µg/mL]
Hu32 (antibody, IgG4, V domains shown, humanized IgG4) VH: EVQLVESGGGLVQPGGSLRLSCAASGFTFSSYHMSWVRQAPGKGLELVAAISRDGDSTYYPDTVKGRFTISRDDAENSLYLQMNSLRAEDTAVYYCSRHEDYFGFAMDSWGQGTLVTVSS VL: AIQMTQSPSSLSASVGDRVTITCKASQSVTNDVAWYQQKPGKAPKLLIYYVSNHYTGVPSRFSGSGSGTDFTLTISSLQPEDFATYFCQQAYRSPWTFGQGTKLEIK | 127 | 0.0471 | 119 | 150 | 2.82 | 0.00404
Hu4 (antibody, IgG4, V domains shown, humanized IgG4; also called Hu-04) VH: EVQLVESGGGLVQPGGSLRLSCAASGFTFSSYHMSWVRQAPGKGLELVAAINSNDINTYYLDTVKGRFTISRDIAKNSLYLQMNSLRAEDTAVYYCARHEDYYGFAMDYWGQGTLVTVSS VL: DIVMTQSPDSLAVSLGERATINCKASQSVSNDVAWYQQKPGQPPKLLIYYVSHRFTGVPDRFSGSGSGTDFTLTISSLQAEDVAVYFCHQAYRSPWTFGQGTKLEIK | 94.2 | 0.0385 | 186 | 144 | 4.22 | 0.00295
Hu50 (antibody, IgG4, V domains shown, humanized IgG4) VH: EVQLVESGGGLVKPGGSLRLSCAASGFTFSSYHMSWVRQAPGKGLELVSAINSNGINTYYLDTVKGRFTISRDNAKNSLYLQMNSLRAEDTAVYYCARHEDYYGFAMDYWGQGTLVTVSS VL: AIQMTQSPSSLSASVGDRVTITCKASQSVTNDVAWYQQKPGKAPKLLIYYVSNHYTGVPSRFSGSGSGTDFTLTISSLQPEDFATYFCQQAYRSPWTFGQGTKLEIK | 90 | 0.0268 | 245 | 190 | 2.67 | 0.00459
Hu13 (antibody, IgG4, V domains shown, humanized IgG4) VH: EVQLVESGGGLVKPGGSLRLSCAASGFTFSSYHMSWVRQAPGKGLELVSAISRDGDSTYYPDTVKGRFTISRDNAKNSLYLQMNSLRAEDTAVYYCSRHEDYFGFAMDSWGQGTLVTVSS VL: DIVMTQSPDSLAVSLGERATINCKASQSVTNDVAWYQQKPGQPPKLLIYYVSNHYTGVPDRFSGSGSGTDFTLTISSLQAEDVAVYFCQQAYRSPWTFGQGTKLEIK | 164 | 0.0252 | 192 | 132 | 2.19 | 0.00433
Hu58 (antibody, IgG4, V domains shown, humanized IgG4) VH: EVQLVESGGGLVQPGGSLRLSCAASGFTFSSYHMSWIRQAPGKGLELVAAINSNGINTYYLDTVKGRFTISRDNAKNSLYLQMNSLRAEDTAVYYCARHEDYYGFAMDYWGQGTLVTVSS VL: DIVMTQSPDSLAVSLGERATINCKASQSVSNDVAWYQQKPGQPPKLLIYYVSHRFTGVPDRFSGSGSGTDFTLTISSLQAEDVAVYFCHQAYRSPWTFGQGTKLEIK | 74 | 0.0216 | 277 | 172 | 3.25 | 0.00488
Hu55 (antibody, IgG4, V domains shown, humanized IgG4) VH: EVQLVESGGGLVQPGGSLRLSCAASGFTFSSYHMSWIRQAPGKGLELVAAINSNGINTYYLDTVKGRFTISRDNAKNSLYLQMNSLRAEDTAVYYCARHEDYYGFAMDYWGQGTLVTVSS VL: DIVMTQSPDSLAVSLGERATINCKASQSVTNDVAWYQQKPGQPPKLLIYYVSNHYTGVPDRFSGSGSGTDFTLTISSLQAEDVAVYFCQQAYRSPWTFGQGTKLEIK | 85.7 | 0.0223 | 302 | 166 | 2.81 | 0.00553
Hu31 (antibody, IgG4, V domains shown, humanized IgG4) VH: EVQLVESGGGLVQPGGSLRLSCAASGFTFSSYHMSWVRQAPGKGLELVAAISRDGDSTYYPDTVKGRFTISRDDAENSLYLQMNSLRAEDTAVYYCSRHEDYFGFAMDSWGQGTLVTVSS VL: DIVMTQSPDSLAVSLGERATINCKASQSVTNDVAWYQQKPGQPPKLLIYYVSNHYTGVPDRFSGSGSGTDFTLTISSLQAEDVAVYFCQQAYRSPWTFGQGTKLEIK | 142 | 0.0507 | 110 | 179 | 2.52 | 0.00339
Hu49 (antibody, IgG4, V domains shown, humanized IgG4) VH: EVQLVESGGGLVKPGGSLRLSCAASGFTFSSYHMSWVRQAPGKGLELVSAINSNGINTYYLDTVKGRFTISRDNAKNSLYLQMNSLRAEDTAVYYCARHEDYYGFAMDYWGQGTLVTVSS VL: DIVMTQSPDSLAVSLGERATINCKASQSVTNDVAWYQQKPGQPPKLLIYYVSNHYTGVPDRFSGSGSGTDFTLTISSLQAEDVAVYFCQQAYRSPWTFGQGTKLEIK | 97.5 | 0.0307 | 214 | 176 | 2.47 | 0.00495
Hu10 (antibody, IgG4, V domains shown, humanized IgG4) VH: EVQLVESGGGLVKPGGSLRLSCAASGFTFSSYHMSWVRQAPGKGLELVSAINSNDINTYYLDTVKGRFTISRDIAKNSLYLQMNSLRAEDTAVYYCARHEDYYGFAMDYWGQGTLVTVSS VL: DIVMTQSPDSLAVSLGERATINCKASQSVSNDVAWYQQKPGQPPKLLIYYVSHRFTGVPDRFSGSGSGTDFTLTISSLQAEDVAVYFCHQAYRSPWTFGQGTKLEIK | 95.5 | 0.0377 | 199 | 153 | 4.17 | 0.00257
Hu19 (antibody, IgG4, V domains shown, humanized IgG4) VH: EVQLVESGGGLVKPGGSLRLSCAASGFTFSSYHMSWVRQAPGKGLELVSAISRDGDSTYYPDTVKGRFTISRDDAENSLYLQMNSLRAEDTAVYYCSRHEDYFGFAMDSWGQGTLVTVSS VL: DIVMTQSPDSLAVSLGERATINCKASQSVTNDVAWYQQKPGQPPKLLIYYVSNHYTGVPDRFSGSGSGTDFTLTISSLQAEDVAVYFCQQAYRSPWTFGQGTKLEIK | 144 | 0.0404 | 127 | 139 | 2.48 | 0.00411
Hu7 (antibody, IgG4, V domains shown, humanized IgG4; also called Hu-07) VH: EVQLVESGGGLVKPGGSLRLSCAASGFTFSSYHMSWVRQAPGKGLELVSAINSNDINTYYLDTVKGRFTISRDIAKNSLYLQMNSLRAEDTAVYYCARHEDYYGFAMDYWGQGTLVTVSS VL: DIVMTQSPDSLAVSLGERATINCKASQSVTNDVAWYQQKPGQPPKLLIYYVSNHYTGVPDRFSGSGSGTDFTLTISSLQAEDVAVYFCQQAYRSPWTFGQGTKLEIK | 78.6 | 0.144 | 48.6 | 91 | 5.06 | 0.00432
Hu25 (antibody, IgG4, V domains shown, humanized IgG4) VH: EVQLVESGGGLVQPGGSLRLSCAASGFTFSSYHMSWVRQAPGKGLELVAAISRDGDSTYYPDTVKGRFTISRDNAKNSLYLQMNSLRAEDTAVYYCSRHEDYFGFAMDSWGQGTLVTVSS VL: DIVMTQSPDSLAVSLGERATINCKASQSVTNDVAWYQQKPGQPPKLLIYYVSNHYTGVPDRFSGSGSGTDFTLTISSLQAEDVAVYFCQQAYRSPWTFGQGTKLEIK | 97 | 0.0412 | 157 | 165 | 3.7 | 0.00403
